B1: target 1 del19 (mixed)
RNA 1: CACCCGUGCAAAAAUGCAGGGGUCUAAAACUGAGCGGAUAACCUCUCUAUGG
RNA 2: GGGAAUGGAUCCACAUCUACGAAUUCGUACCAAGAGAGGUUAUCCGCUCACCGAGAUCGGAAGAGCACACGU
B2: target 1 C4A,G12C (mixed)
RNA 1: CACCCGUGCAAAAAUGCAGGGGUCUAAAACUGAGCGGAUAACCUCUCUAUGG
RNA 2: GGGAAUGGAUCCACAUCUACGAAUUCGUACCAUAGAGAGCUUAUCCGAUCACCGAGAUCGGAAGAGCACACGU
B3: target 1 C7G,U10A (mixed)
RNA 1: CACCCGUGCAAAAAUGCAGGGGUCUAAAACUGAGCGGAUAACCUCUCUAUGG
RNA 2: GGGAAUGGAUCCACAUCUACGAAUUCGUACCAUAGAGAGGUAAUGCGCUCACCGAGAUCGGAAGAGCACACGU
B4: target 1 del15,del20 (mixed)
RNA 1: CACCCGUGCAAAAAUGCAGGGGUCUAAAACUGAGCGGAUAACCUCUCUAUGG
RNA 2: GGGAAUGGAUCCACAUCUACGAAUUCGUACCUAGAAGGUUAUCCGCUCACCGAGAUCGGAAGAGCACACGU
B5: target 1 C4A,A18G (mixed)
RNA 1: CACCCGUGCAAAAAUGCAGGGGUCUAAAACUGAGCGGAUAACCUCUCUAUGG
RNA 2: GGGAAUGGAUCCACAUCUACGAAUUCGUACCAUGGAGAGGUUAUCCGAUCACCGAGAUCGGAAGAGCACACGU
B6: target 1 insA 3' of 6,insU 3' of 1 (mixed)
RNA 1: CACCCGUGCAAAAAUGCAGGGGUCUAAAACUGAGCGGAUAACCUCUCUAUGG
RNA 2: GGGAAUGGAUCCACAUCUACGAAUUCGUACCAUAGAGAGGUUAUCCAGCUCAUCCGAGAUCGGAAGAGCACACGU
B7: target 1 G13A,G17A (mixed)
RNA 1: CACCCGUGCAAAAAUGCAGGGGUCUAAAACUGAGCGGAUAACCUCUCUAUGG
RNA 2: GGGAAUGGAUCCACAUCUACGAAUUCGUACCAUAAAGAAGUUAUCCGCUCACCGAGAUCGGAAGAGCACACGU
B8: target 1 G5U,U10A (mixed)
RNA 1: CACCCGUGCAAAAAUGCAGGGGUCUAAAACUGAGCGGAUAACCUCUCUAUGG
RNA 2: GGGAAUGGAUCCACAUCUACGAAUUCGUACCAUAGAGAGGUAAUCCUCUCACCGAGAUCGGAAGAGCACACGU
B9: target 1 insA 3' of 21,insU 3' of 14 (mixed)
RNA 1: CACCCGUGCAAAAAUGCAGGGGUCUAAAACUGAGCGGAUAACCUCUCUAUGG
RNA 2: GGGAAUGGAUCCACAUCUACGAAUUCGUACCAAUAGAGAUGGUUAUCCGCUCACCGAGAUCGGAAGAGCACACGU
B10: target 1 insG 3' of 14,insU 3' of 9 (mixed)
RNA 1: CACCCGUGCAAAAAUGCAGGGGUCUAAAACUGAGCGGAUAACCUCUCUAUGG
RNA 2: GGGAAUGGAUCCACAUCUACGAAUUCGUACCAUAGAGAGGGUUAUUCCGCUCACCGAGAUCGGAAGAGCACACGU
B11: target 1 insG 3' of 14,insA 3' of 13 (mixed)
RNA 1: CACCCGUGCAAAAAUGCAGGGGUCUAAAACUGAGCGGAUAACCUCUCUAUGG
RNA 2: GGGAAUGGAUCCACAUCUACGAAUUCGUACCAUAGAGAGGAGUUAUCCGCUCACCGAGAUCGGAAGAGCACACGU
B12: target 1 insC 3' of 11,insC 3' of 9 (mixed)
RNA 1: CACCCGUGCAAAAAUGCAGGGGUCUAAAACUGAGCGGAUAACCUCUCUAUGG
RNA 2: GGGAAUGGAUCCACAUCUACGAAUUCGUACCAUAGAGAGGUCUACUCCGCUCACCGAGAUCGGAAGAGCACACGU
B13: target 1 insA 3' of 4 (mixed)
RNA 1: CACCCGUGCAAAAAUGCAGGGGUCUAAAACUGAGCGGAUAACCUCUCUAUGG
RNA 2: GGGAAUGGAUCCACAUCUACGAAUUCGUACCAUAGAGAGGUUAUCCGCAUCACCGAGAUCGGAAGAGCACACGU
B14: target 1 insU 3' of 17,insG 3' of 3 (mixed)
RNA 1: CACCCGUGCAAAAAUGCAGGGGUCUAAAACUGAGCGGAUAACCUCUCUAUGG
RNA 2: GGGAAUGGAUCCACAUCUACGAAUUCGUACCAUAGUAGAGGUUAUCCGCUGCACCGAGAUCGGAAGAGCACACGU
B15: target 1 G12U,C22G (mixed)
RNA 1: CACCCGUGCAAAAAUGCAGGGGUCUAAAACUGAGCGGAUAACCUCUCUAUGG
RNA 2: GGGAAUGGAUCCACAUCUACGAAUUCGUAGCAUAGAGAGUUUAUCCGCUCACCGAGAUCGGAAGAGCACACGU
B16: target 1 G5A,C6U (mixed)
RNA 1: CACCCGUGCAAAAAUGCAGGGGUCUAAAACUGAGCGGAUAACCUCUCUAUGG
RNA 2: GGGAAUGGAUCCACAUCUACGAAUUCGUACCAUAGAGAGGUUAUCUACUCACCGAGAUCGGAAGAGCACACGU
B17: target 1 insU 3' of 21,insC 3' of 13 (mixed)
RNA 1: CACCCGUGCAAAAAUGCAGGGGUCUAAAACUGAGCGGAUAACCUCUCUAUGG
RNA 2: GGGAAUGGAUCCACAUCUACGAAUUCGUACCUAUAGAGAGCGUUAUCCGCUCACCGAGAUCGGAAGAGCACACGU
B18: target 1 insU 3' of 18,insA 3' of 5 (mixed)
RNA 1: CACCCGUGCAAAAAUGCAGGGGUCUAAAACUGAGCGGAUAACCUCUCUAUGG
RNA 2: GGGAAUGGAUCCACAUCUACGAAUUCGUACCAUAUGAGAGGUUAUCCGACUCACCGAGAUCGGAAGAGCACACGU
B19: target 1 insC 3' of 10,insA 3' of 10 (mixed)
RNA 1: CACCCGUGCAAAAAUGCAGGGGUCUAAAACUGAGCGGAUAACCUCUCUAUGG
RNA 2: GGGAAUGGAUCCACAUCUACGAAUUCGUACCAUAGAGAGGUUCAAUCCGCUCACCGAGAUCGGAAGAGCACACGU
B20: target 1 C6U,G17A (mixed)
RNA 1: CACCCGUGCAAAAAUGCAGGGGUCUAAAACUGAGCGGAUAACCUCUCUAUGG
RNA 2: GGGAAUGGAUCCACAUCUACGAAUUCGUACCAUAAAGAGGUUAUCUGCUCACCGAGAUCGGAAGAGCACACGU
B21: target 1 G17C,C22A (mixed)
RNA 1: CACCCGUGCAAAAAUGCAGGGGUCUAAAACUGAGCGGAUAACCUCUCUAUGG
RNA 2: GGGAAUGGAUCCACAUCUACGAAUUCGUAACAUACAGAGGUUAUCCGCUCACCGAGAUCGGAAGAGCACACGU
B22: target 1 C6A,C22A (mixed)
RNA 1: CACCCGUGCAAAAAUGCAGGGGUCUAAAACUGAGCGGAUAACCUCUCUAUGG
RNA 2: GGGAAUGGAUCCACAUCUACGAAUUCGUAACAUAGAGAGGUUAUCAGCUCACCGAGAUCGGAAGAGCACACGU
B23: target 1 U3C,C7U (mixed)
RNA 1: CACCCGUGCAAAAAUGCAGGGGUCUAAAACUGAGCGGAUAACCUCUCUAUGG
RNA 2: GGGAAUGGAUCCACAUCUACGAAUUCGUACCAUAGAGAGGUUAUUCGCCCACCGAGAUCGGAAGAGCACACGU
B24: target 1 G5A,G13A (mixed)
RNA 1: CACCCGUGCAAAAAUGCAGGGGUCUAAAACUGAGCGGAUAACCUCUCUAUGG
RNA 2: GGGAAUGGAUCCACAUCUACGAAUUCGUACCAUAGAGAAGUUAUCCACUCACCGAGAUCGGAAGAGCACACGU
B25: target 1 insU 3' of 21,insG 3' of 16 (mixed)
RNA 1: CACCCGUGCAAAAAUGCAGGGGUCUAAAACUGAGCGGAUAACCUCUCUAUGG
RNA 2: GGGAAUGGAUCCACAUCUACGAAUUCGUACCUAUAGAGGAGGUUAUCCGCUCACCGAGAUCGGAAGAGCACACGU
B26: target 1 C2U,G12U (mixed)
RNA 1: CACCCGUGCAAAAAUGCAGGGGUCUAAAACUGAGCGGAUAACCUCUCUAUGG
RNA 2: GGGAAUGGAUCCACAUCUACGAAUUCGUACCAUAGAGAGUUUAUCCGCUUACCGAGAUCGGAAGAGCACACGU
B27: target 1 A18U,C21A (mixed)
RNA 1: CACCCGUGCAAAAAUGCAGGGGUCUAAAACUGAGCGGAUAACCUCUCUAUGG
RNA 2: GGGAAUGGAUCCACAUCUACGAAUUCGUACAAUUGAGAGGUUAUCCGCUCACCGAGAUCGGAAGAGCACACGU
B28: target 1 insC 3' of 17,insA 3' of 7 (mixed)
RNA 1: CACCCGUGCAAAAAUGCAGGGGUCUAAAACUGAGCGGAUAACCUCUCUAUGG
RNA 2: GGGAAUGGAUCCACAUCUACGAAUUCGUACCAUAGCAGAGGUUAUCACGCUCACCGAGAUCGGAAGAGCACACGU

Target: T1, EsCas13d, nuclease-dead (Eubacterium siraeum, UniProt B0MS50, R295A;H300A;R849A;H854A)
T1 sequence: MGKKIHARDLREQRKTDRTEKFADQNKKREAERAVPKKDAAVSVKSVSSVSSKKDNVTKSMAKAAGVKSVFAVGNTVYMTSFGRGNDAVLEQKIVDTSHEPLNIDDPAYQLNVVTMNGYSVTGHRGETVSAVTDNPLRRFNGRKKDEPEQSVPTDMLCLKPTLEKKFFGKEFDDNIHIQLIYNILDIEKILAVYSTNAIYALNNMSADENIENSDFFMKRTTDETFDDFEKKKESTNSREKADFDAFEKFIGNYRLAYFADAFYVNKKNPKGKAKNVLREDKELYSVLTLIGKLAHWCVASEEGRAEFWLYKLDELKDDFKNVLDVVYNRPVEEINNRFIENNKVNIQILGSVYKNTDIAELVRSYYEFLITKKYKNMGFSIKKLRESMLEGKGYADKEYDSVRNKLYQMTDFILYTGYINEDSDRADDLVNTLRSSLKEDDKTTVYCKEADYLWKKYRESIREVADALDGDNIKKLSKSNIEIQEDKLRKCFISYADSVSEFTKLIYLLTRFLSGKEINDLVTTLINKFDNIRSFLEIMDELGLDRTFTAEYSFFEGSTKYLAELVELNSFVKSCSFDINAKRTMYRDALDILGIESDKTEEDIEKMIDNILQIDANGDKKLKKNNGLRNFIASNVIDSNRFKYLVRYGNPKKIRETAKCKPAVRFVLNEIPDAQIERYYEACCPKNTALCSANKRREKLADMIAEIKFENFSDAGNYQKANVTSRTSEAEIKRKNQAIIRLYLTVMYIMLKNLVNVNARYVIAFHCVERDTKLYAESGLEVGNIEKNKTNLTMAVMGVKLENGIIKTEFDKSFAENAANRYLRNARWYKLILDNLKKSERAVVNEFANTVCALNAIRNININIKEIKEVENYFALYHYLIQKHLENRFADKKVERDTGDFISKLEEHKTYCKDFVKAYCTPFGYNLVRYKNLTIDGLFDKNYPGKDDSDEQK
Assay: crRNA (strand 1, pre-loaded); Mg2+; 40 mM Tris-HCl pH 7.5, 150 mM NaCl, 6 mM MgCl2, 1 mM DTT, 0.1% Tween-20, 0.2 mg/ml BSA; 25 C; 10 min per concentration, then washed
Details: tags: His6-TwinStrep-SUMO cleaved; N-terminal SNAP kept (SNAP-Surface 488); label: 3' end held by stalled T7 RNA polymerase

Binder	Kd
B1	26.4 ± 2.2 nM
B2	31 ± 8 nM
B3	11.7 ± 0.5 nM
B4	90 ± 40 nM
B5	68 ± 16 nM
B6	25 ± 5 nM
B7	66 ± 19 nM
B8	95 ± 22 nM
B9	49 ± 11 nM
B10	81 ± 28 nM
B11	10.9 ± 0.5 nM
B12	29.4 ± 2.5 nM
B13	8.5 ± 1.1 nM
B14	23.4 ± 2.7 nM
B15	42 ± 6 nM
B16	13.1 ± 0.8 nM
B17	32 ± 4 nM
B18	23.7 ± 2.6 nM
B19	13.5 ± 1 nM
B20	42 ± 4 nM
B21	~60 nM
B22	10.5 ± 0.6 nM
B23	19.6 ± 2.2 nM
B24	34 ± 7 nM
B25	87 ± 23 nM
B26	10.5 ± 0.5 nM
B27	56 ± 6 nM
B28	38 ± 4 nM

From paper PMC10786891, “Massively parallel profiling of RNA-targeting CRISPR-Cas13d”
